These results are taken from article PMC2791859.

Test [1] deals with FcγRIa, recombinant extracellular domain (UniProt P12314). The experiment in a line: SPR; Biacore 3000; extracellular domain of FcγRIa immobilized covalently or through enzymatic, site-directed biotinylation; antibody as analyte; kinetic analysis at pH 7.4.
The target in test [2] is FcRn, recombinant extracellular domain (UniProt P55899). Description: SPR; Biacore 3000; extracellular domain of FcRn immobilized covalently or through enzymatic, site-directed biotinylation; antibody as analyte; steady-state analysis at pH 6.0.
Chain of UniProt P55899 (P55899 whole entry, looked up, the tested form may be a part): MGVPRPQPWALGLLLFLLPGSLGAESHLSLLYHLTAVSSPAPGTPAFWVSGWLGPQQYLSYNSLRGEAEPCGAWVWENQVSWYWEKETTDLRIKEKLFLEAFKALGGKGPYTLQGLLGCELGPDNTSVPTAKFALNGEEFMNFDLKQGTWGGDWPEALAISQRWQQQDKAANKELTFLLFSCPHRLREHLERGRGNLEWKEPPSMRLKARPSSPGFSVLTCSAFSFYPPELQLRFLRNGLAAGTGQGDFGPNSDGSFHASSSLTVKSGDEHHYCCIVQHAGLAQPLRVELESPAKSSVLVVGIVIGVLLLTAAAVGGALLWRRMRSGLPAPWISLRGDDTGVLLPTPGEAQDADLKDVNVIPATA

Chain of UniProt P12314 (P12314 16-292): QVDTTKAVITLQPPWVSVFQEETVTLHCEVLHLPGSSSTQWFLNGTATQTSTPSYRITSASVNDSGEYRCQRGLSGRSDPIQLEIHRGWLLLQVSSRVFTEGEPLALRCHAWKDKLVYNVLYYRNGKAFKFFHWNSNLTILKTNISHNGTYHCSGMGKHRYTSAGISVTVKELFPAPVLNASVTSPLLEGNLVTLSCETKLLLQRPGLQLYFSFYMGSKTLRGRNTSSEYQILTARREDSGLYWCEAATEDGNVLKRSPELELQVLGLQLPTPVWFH

As for “human IgG1 antibody Variant FS (F241S F243S)”, in test [1], the Kd came to 0.074 µM, the koff is 0.0021 s⁻¹ and the kon was 29000 M⁻¹ s⁻¹. In addition, in test [2], the dissociation constant Kd was found to be 2.7 µM.
